Patent publication US10788489

Columns and labels:
[1] = target: anti-histidine-tag polyclonal antibody (Bethyl Laboratories, Inc., USA); test: competitive immunochromatography, 10 µg/mL FBA added; concentration read from the ATG-8 standard curve
[2] = target: anti-histidine-tag polyclonal antibody (Bethyl Laboratories, Inc., USA); test: competitive immunochromatography, 30 µg/mL FBA added; concentration read from the ATG-8 standard curve
[3] = target: anti-histidine-tag polyclonal antibody (Bethyl Laboratories, Inc., USA); test: competitive immunochromatography, 1.1 µg/mL FBA added; concentration read from the ATG-8 standard curve
[4] = target: anti-histidine-tag polyclonal antibody (Bethyl Laboratories, Inc., USA); test: competitive immunochromatography, 3.3 µg/mL FBA added; concentration read from the ATG-8 standard curve
[5] = target: anti-histidine-tag polyclonal antibody (Bethyl Laboratories, Inc., USA); test: competitive immunochromatography, 0.37 µg/mL FBA added; concentration read from the ATG-8 standard curve
[6] = target: anti-histidine-tag polyclonal antibody (Bethyl Laboratories, Inc., USA); test: competitive immunochromatography, 10 µg/mL FBA added; calculated against added concentration, ATG-8 standard curve as reference
[7] = target: anti-histidine-tag polyclonal antibody (Bethyl Laboratories, Inc., USA); test: competitive immunochromatography, 30 µg/mL FBA added; calculated against added concentration, ATG-8 standard curve as reference
[8] = target: anti-histidine-tag polyclonal antibody (Bethyl Laboratories, Inc., USA); test: competitive immunochromatography, 1.1 µg/mL FBA added; calculated against added concentration, ATG-8 standard curve as reference
[9] = target: anti-histidine-tag polyclonal antibody (Bethyl Laboratories, Inc., USA); test: competitive immunochromatography, 3.3 µg/mL FBA added; calculated against added concentration, ATG-8 standard curve as reference
[10] = target: anti-histidine-tag polyclonal antibody (Bethyl Laboratories, Inc., USA); test: competitive immunochromatography, 0.37 µg/mL FBA added; calculated against added concentration, ATG-8 standard curve as reference

Calculated concentration [1]: 1.81 µg/mL
Calculated concentration [2]: 11.7 µg/mL
Calculated concentration [3]: 0.14 µg/mL
Calculated concentration [4]: 0.51 µg/mL
Calculated concentration [5]: 0.056 µg/mL
Recovery [6]: 0.18
Recovery [7]: 0.39
Recovery [8]: 0.13
Recovery [9]: 0.15
Recovery [10]: 0.15
B1: fructose bisphosphate aldolase comprising histidine-tag (Cusabio, USA) (enzyme, UniProt P04075 2-364, looked up, species assumed)
Fructose-bisphosphate aldolase A: PYQYPALTPEQKKELSDIAHRIVAPGKGILAADESTGSIAKRLQSIGTENTEENRRFYRQLLLTADDRVNPCIGGVILFHETLYQKADDGRPFPQVIKSKGGVVGIKVDKGVVPLAGTNGETTTQGLDGLSERCAQYKKDGADFAKWRCVLKIGEHTPSALAIMENANVLARYASICQQNGIVPIVEPEILPDGDHDLKRCQYVTEKVLAAVYKALSDHHIYLEGTLLKPNMVTPGHACTQKFSHEEIAMATVTALRRTVPPAVTGITFLSGGQSEEEASINLNAINKCPLLKPWALTFSYGRALQASALKAWGGKKENLKAAQEEYVKRALANSLACQGKYTPSGQAGAAASESLFVSNHAY
modifications: His-tag
